# Assay results: PMC6390363, “Tau as a mediator of neurotoxicity associated to cerebral amyloid angiopathy” (Acta Neuropathologica Communications, 2019)
# B1: ADan peptide (Danish amyloid) (peptide)
# peptide: EASNCFAIRHFENKFAVETLICFNLFLNSQEKHY
# notes: the C-terminal part differs from wild-type BRI2; also called ADan amyloid peptide; ADan recombinant peptide; source: synthetic peptide (ThermoFisher Scientific, Fmoc-based solid phase peptide synthesis, purified by HPLC)
# Target: the molecule itself
# Experiment: SDS-PAGE and Western blot of the stirred peptide; ADan peptide 0.5 mg/mL in PBS without calcium and magnesium, stirred at room temperature for up to 48 h, aliquots at 2, 8, 24 and 48 h; blots with anti-ADan 1699 and the conformational anti-oligomer antibody F11G3
protein,measurement,value
B1,binding result,binds
